Data: patent US6183121

Experiments:
[1] = target: HCV NS3 full-length (wild type) (Hepatitis C virus) (UniProt P26664)
[2] = target: HCV NS3 helicase domain (wild type) (Hepatitis C virus) (UniProt P26664); conditions: requires ATP and Mn2+ or Mg2+; 25 mM MOPS pH 6.5, 1 mM ATP, 0.5 mM MnCl2, 37 C
[3] = target: HCV NS3 full-length (wild type) (Hepatitis C virus) (UniProt P26664); assay: filter; conditions: reference
[4] = target: HCV NS3 helicase domain (wild type) (Hepatitis C virus) (UniProt P26664); assay: filter; conditions: 25 mM MOPS pH 7.0, 2 mM DTT, 30 C; 0.445 RNA per helicase molecule; koff 1.52e-2 min-1
[5] = target: HCV NS3 helicase domain (wild type) (Hepatitis C virus) (UniProt P26664); conditions: poly(U)-stimulated ATPase; 50 mM MOPS pH 7.0, 0.5 mM MgCl2, 37 C

“3'-tailed 98-nt RNA / 34-nt DNA hybrid (pSP65 BsrBI transcript; pSP64 release strand)” was tested, and the activity (% of WT unwinding) ([1]; reference) was 100 and the activity (% of WT unwinding) [2] was 100.

For “34-nt ssRNA (SP6 transcript of BamHI-digested pSP64)”, the binding signal [3] was 100 % of WT and the Kd [4] was 5.18 nM.

Substance poly(U) has an activity (% of basal WT ATPase) [5] of 823 and an activity (% of basal WT ATPase) ([1]; poly(U)-stimulated ATPase) of 581.
